Measured values: US9499823B2, “Constructs expressing chimeric receptors and use thereof for the controlled activation of defence response to pathogens in plants” (priority 2009, dated 2016)
Entries after “also recorded” stand apart in the source; their conditions may differ.

What was measured:
[1] = tested on: RetOx, CYP81F2 and PAD3 transcripts; test: Elicitor-induced accumulation of Ret-Ox, CYP81F2 and PAD3 transcripts, semi-quantitative PCR; type: cell-based, Arabidopsis thaliana; settings: flg22 1 μM, 30 minutes, stably transformed Ws-0 plants
Description: B) Elicitor induced accumulation of Ret-Ox, CYP81F2 and PAD3 transcripts analysed by semi-quantitative PCR, using the UBQ5 gene for normalization. Leaves were incubated with water, flg22 (1 μM), elfl8 (10 μM) or a generic peptide (10 μM) for 30 minutes. The experiment was repeated three times with similar results. The same experiment was performed in a second independent transgenic line expressing eJMC with similar results.
(§1) 3,3′-diaminobenzidine (DAB) staining, callose deposition and gene resistance analysis were assayed as described (Galletti et al., 2008). For measuring active oxygen species released by tobacco agroinfiltrated plants after elicitor treatment, the authors used a modified luminol-dependent assay (Gomez et al., 1999). Slices, corresponding to approximately 30 mg fresh weight, were transferred to assay tubes containing 1 μM flg22 or 10 μM elfl8 in aqueous solution supplied with 40 μM luminol (SIGMA). Chemo-luminescence was measured in a liquid scintillation counter (LS-6500, Beckman) after 5 and 15 min upon addition of elicitors.
Fluorescent eJMC and FLS2 were also stably expressed in transgenic Arabidopsis ecotype Wassilewskija (Ws-0), which carries EFR but lacks a flg22 perception system (Gomez-Gomez et al., 1999, Bauer et al., 2001). Transformed T1 plants expressing the proteins, named eJMC plants and FLS2 plants, respectively, were selected by confocal microscopy analysis of adult rosette leaves. […] Fluorescence was detected only in adult rosette leaves, likely due to a low expression level of the receptor at the different developmental stages.

[2] = tested on: oxidative burst in tobacco leaves; test: Oxidative burst, luminol-dependent photon counting in agroinfiltrated tobacco leaf slices; type: cell-based, Nicotiana tabacum; settings: 10 μM elfl8, after 15 min
Description: D) Oxidative burst in tobacco leaves transiently expressing eJMC, EFR and EWAK. Photon counting was realized using tobacco leaves slices in a solution of luminol and peroxidase, during treatment with 10 μM elfl8. eJMC- and EFR-expressing explants were used as a negative and a positive control, respectively. Experiment was repeated at least 6 times on two independent replicated.
(C) Oxidative burst in agroinfiltrated tobacco leaves expressing EWAK. Leaves expressing eJMC and EFR were used as a negative and a positive control, respectively. The burst was measured by photon counting using leaf slices incubated in a solution containing 10 μM elfl8, luminol and peroxidase. The experiment was repeated at least 6 times with two independent replicates.
as §1

[3] = tested on: At3g22270 and At4g37640 transcripts; test: Elicitor-induced At3g22270 and At4g37640 expression, semi-quantitative PCR, Arabidopsis Col-0 / Col-0 efr; type: cell-based, Arabidopsis thaliana; settings: transgenic Col-0 efr plants
Description: (A) Induction of ethylene biosynthesis in agroinfiltrated tobacco explants expressing EFR, WAK1, WEG and EWAK. […] Agroinfiltrated leaf tissues expressing EFR or WEG and elicited with OGs or elfl8 respectively, represented our negative control. Values are means±s.e.m. (N=3). (B) Elicitor-induced gene expression in untransformed Col-0 and Col-0 efr plants, and in transgenic Arabidopsis Col-0 efr plants stably expressing WEG. Accumulation of At3g22270 and At4g37640 transcripts was analysed by semi-quantitative PCR, using the UBQ5 gene for normalization. Adult leaves were syringe-infiltrated with water, OGs (25 μg/ml) or elfl8 (10 μM) for 3 h. The experiment was repeated three times with similar results. The same experiment was performed in a second independent transgenic line expressing WEG with similar results.
The ability of WEG to activate downstream responses upon stimulation with OGs was analysed in agroinfiltrated tobacco.

B. cinerea = test: Lesion development in Arabidopsis plants inoculated with B. cinerea; type: in vivo; settings: transgenic Arabidopsis vs Col-0 or Col-0 efr, 48 h post-inoculation
Description: (A) Growth of A. tumefaciens in N. tabacum tissues transiently expressing receptor proteins. Tobacco leaves were infiltrated with Agrobacterium carrying the indicated receptor constructs and the number of Agrobacterium colony-forming units (c.f.u.) in the tissues was analyzed immediately after infiltration (white bars) and after 24 h (gray bars). EFR and eJMC were used as positive and negative controls, respectively. For each receptor, three samples were analyzed in five independent experiments. Asterisks indicate statistically significant differences against control (Col-0 for WAK1 plants and Col-0 efr for WEG and EWAK plants). (B) Lesion development in Arabidopsis wild type (Col-0) and mutant Col-0 efr plants and in transgenic plants expressing WAK1, WEG and EWAK plants inoculated with B. cinerea at 48 h post-inoculation. Values are means±s.e.m. of at least 16 lesions. The same experiment was performed in a second independent transgenic line expressing WAK1 with similar results. Asterisks indicate statistically significant differences against control (Col-0 for WAK1 plants and Col-0 efr for WEG and EWAK plants).

[4] = tested on: Pectobacterium carotovorum subsp. carotovorum; test: Infection assay with Pectobacterium carotovorum on transgenic Arabidopsis leaves; type: in vivo; settings: transgenic Arabidopsis vs Col-0 or Col-0 efr, 24 h, 5×10^7 CFU/ml
Description: Inoculum concentration was 5×10^7 CFU/ml). Values are means±SE of at least 16 lesions. Asterisks indicate statistically significant differences against control plants (Col-0 or Col-0 efr), according to Student's t test (*, p<0.0005).
Agrobacterium tumefaciens GV3101 strain infections was performed as described in Katagiri et al., (2002) and using a concentration of Agrobacterium corresponding at an OD600 of 1.0 in 10 mM MgCl2 and 600 μM acetosyringone. After 24 h of infiltration, serial dilution of Agrobacterium colonies were deposited on LB agar supplemented with gentamycin and rifampicin and grown for 2-3 days at 28° C. in the dark. At least 5 independent plants and 3 different leaves by plant, were used per experiment. Pectobacterium carotovorum subsp. carotovorum infections Pectobacterium carotovorum subsp. carotovorum (formely Erwinia carotovora; Gardan et al., 2003) (strain DMSZ 30169) was obtained from DSMZ GmbH (Germany). A liquid colture using 10 ml LB medium was prepared. […]
For infection, fully developed leaves of 4 week old Arabidopsis plants were detached and placed in 0.8% agar Petri dishes. […] Symptoms were scored measuring the area of macerated tissue after 24 hour post inoculation at 22° C. and 12 h photoperiod. Area was measured by ImageJ software. […]

[5] = tested on: transgenic Arabidopsis leaves; test: Constitutive activation of defense responses (H2O2, callose) in transgenic plants; type: cell-based, Arabidopsis thaliana; settings: no elicitor
Description: Leaves were stained with 3,3′-diaminobenzidine (DAB) for H2O2 visualization (upper panel) and with aniline blue for callose visualization (lower panel).
as §1

FLS2 [reference compound]
expression of RetOx, CYP81F2 and PAD3 induced by flg22 [1]: induced

eJMC: chimera (Arg806FLS2-Val650EFR): LRR and eJM domains of FLS2 fused upstream of TM, iJM and kinase domains of EFR, GFP-fused
expression of RetOx, CYP81F2 and PAD3 induced by flg22 [1]: induced
oxidative burst upon treatment with elfl8 [2]: not
oxidative burst upon treatment with elfl8 ([2]; listed as eJM): did not show any significant response

B1: EFR: Arabidopsis LRR receptor kinase Elongation Factor Tu Receptor (AT5G20480); GFP-fused control (protein)
chain: RFSNETDMQALLEFKSQVSENNKREVLASWNHSSPFCNWIGVTCGRRRERVISLNLGGFKLTGVISPSIGNLSFLRLLNLADNSFGSTIPQKVGRLFRLQYLNMSYNLLEGRIPSSLSNCSRLSTVDLSSNHLGHGVPSELGSLSKLAILDLSKNNLTGNFPASLGNLTSLQKLDFAYNQMRGEIPDEVARLTQMVFFQIALNSFSGGFPPALYNISSLESLSLADNSFSGNLRADFGYLLPNLRRLLLGTNQFTGAIPKTLANISSLERFDISSNYLSGSIPLSFGKLRNLWWLGIRNNSLGNNSSSGLEFIGAVANCTQLEYLDVGYNRLGGELPASIANLSTTLTSLFLGQNLISGTIPHDIGNLVSLQELSLETNMLSGELPVSFGKLLNLQVVDLYSNAISGEIPSYFGNMTRLQKLHLNSNSFHGRIPQSLGRCRYLLDLWMDTNRLNGTIPQEILQIPSLAYIDLSNNFLTGHFPEEVGKLELLVGLGASYNKLSGKMPQAIGGCLSMEFLFMQGNSFDGAIPDISRLVSLKNVDFSNNNLSGRIPRYLASLPSLRNLNLSMNKFEGRVPTTGVFRNATAVSVFGNTNICGGVREMQLKPCIVQASPRKRKPLSVRKKVVSGICIGIASLLLIIIVASLCWFMKRKKKNNASDGNPSDSTTLGMFHEKVSYEELHSATSRFSSTNLIGSGNFGNVFKGLLGPENKLVAVKVLNLLKHGATKSFMAECETFKGIRHRNLVKLITVCSSLDSEGNDFRALVYEFMPKGSLDMWLQLEDLERVNDHSRSLTPAEKLNIAIDVASALEYLHVHCHDPVAHCDIKPSNILLDDDLTAHVSDFGLAQLLYKYDRESFLNQFSSAGVRGTIGYAAPEYGMGGQPSIQGDVYSFGILLLEMFSGKKPTDESFAGDYNLHSYTKSILSGCTSSGGSNAIDEGLRLVLQVGIKCSEEYPRDRMRTDEAVRELISIRSKFFSSKTTITESPRDAPQSSPQEWMLNTDMHTM
oxidative burst upon treatment with elfl8 [2]: produced an oxidative burst; also recorded: robust oxidative burst

B2: WEG: chimeric receptor: WAK1 ectodomain fused to the TM-iJM-kinase portion of EFR, GFP-fused (protein)
chain: QHQPGENCQNKCGNITIEYPFGISSGCYYPGNESFSITCKEDRPHVLSDIEVANFNHSGQLQVLLNRSSTCYDEQGKKTEEDSSFTLENLSLSANNKLTAVGCNALSLLDTFGMQNYSTACLSLCDSPPEADGECNGRGCCRVDVSAPLDSYTFETTSGRIKHMTSFHDFSPCTYAFLVEDDKFNFSSTEDLLNLRNVMRFPVLLDWSVGNQTCEQVGSTSICGGNSTCLDSTPRNGYICRCNEGFDGNPYLSAGCQDVNECTTSSTIHRHNCSDPKTCRNKVGGFYCKCQSGYRLDTTTMSCKRKEVVSGICIGIASLLLIIIVASLCWFMKRKKKNNASDGNPSDSTTLGMFHEKVSYEELHSATSRFSSTNLIGSGNFGNVFKGLLGPENKLVAVKVLNLLKHGATKSFMAECETFKGIRHRNLVKLITVCSSLDSEGNDFRALVYEFMPKGSLDMWLQLEDLERVNDHSRSLTPAEKLNIAIDVASALEYLHVHCHDPVAHCDIKPSNILLDDDLTAHVSDFGLAQLLYKYDRESFLNQFSSAGVRGTIGYAAPEYGMGGQPSIQGDVYSFGILLLEMFSGKKPTDESFAGDYNLHSYTKSILSGCTSSGGSNAIDEGLRLVLQVGIKCSEEYPRDRMRTDEAVRELISIRSKFFSSKTTITESPRDAPQSSPQEWMLNTDMHTM
modifications: left off: large carriers
induction of At3g22270 and At4g37640 by other elicitors ([3]; 3 h): not by other elicitors
induction of At3g22270 and At4g37640 by OGs ([3]; OGs 25 μg/ml, 3 h): induced by OGs
constitutive activation of At3g22270 and At4g37640 expression ([3]; water controls): No constitutive activation
resistance to B. cinerea infection (B. cinerea): increased resistance; also recorded: confers resistance
resistance to Pectobacterium carotovorum subsp. carotovorum [4]: increased resistance; also recorded: confers resistance
constitutive activation of defense responses (H2O2 levels, callose deposits) [5]: do not show constitutive activation of defense responses
